Experimental data reported in US11965039B2, “Compstatin analogues and their medical uses” (priority 2018, dated 2024).
Starred links: 1 amine or outer side, 2 acyl side, 3 side chain; linkers in the order of their positions; H or OH if unused. Positions of bridges follow the written chain, without caps; N, C: chain ends. Non-standard residues stand in square brackets, D forms with d. Groups on a side chain read outwards from the residue. *: point of attachment. C20 diacid = O=C(O)CCCCCCCCCCCCCCCCCCC(=O)*; Trp(1-Me) = Cn1cc(C[C@H](N)C(=O)O)c2ccccc21; C18 diacid = O=C(O)CCCCCCCCCCCCCCCCC(=O)*; C16 diacid = O=C(O)CCCCCCCCCCCCCCC(=O)*; γGlu = O=C(O)[C@H](CCC(=O)[*:2])N[*:1]; AEEA = NCCOCCOCC(=O)O; Sar = CNCC(=O)O

biological target: Human C3 (Complement tech cat #A113c) (human, UniProt P01024 23-1663); assay: cell-based or functional assay
Sequence (P01024 23-1663 limits assumed): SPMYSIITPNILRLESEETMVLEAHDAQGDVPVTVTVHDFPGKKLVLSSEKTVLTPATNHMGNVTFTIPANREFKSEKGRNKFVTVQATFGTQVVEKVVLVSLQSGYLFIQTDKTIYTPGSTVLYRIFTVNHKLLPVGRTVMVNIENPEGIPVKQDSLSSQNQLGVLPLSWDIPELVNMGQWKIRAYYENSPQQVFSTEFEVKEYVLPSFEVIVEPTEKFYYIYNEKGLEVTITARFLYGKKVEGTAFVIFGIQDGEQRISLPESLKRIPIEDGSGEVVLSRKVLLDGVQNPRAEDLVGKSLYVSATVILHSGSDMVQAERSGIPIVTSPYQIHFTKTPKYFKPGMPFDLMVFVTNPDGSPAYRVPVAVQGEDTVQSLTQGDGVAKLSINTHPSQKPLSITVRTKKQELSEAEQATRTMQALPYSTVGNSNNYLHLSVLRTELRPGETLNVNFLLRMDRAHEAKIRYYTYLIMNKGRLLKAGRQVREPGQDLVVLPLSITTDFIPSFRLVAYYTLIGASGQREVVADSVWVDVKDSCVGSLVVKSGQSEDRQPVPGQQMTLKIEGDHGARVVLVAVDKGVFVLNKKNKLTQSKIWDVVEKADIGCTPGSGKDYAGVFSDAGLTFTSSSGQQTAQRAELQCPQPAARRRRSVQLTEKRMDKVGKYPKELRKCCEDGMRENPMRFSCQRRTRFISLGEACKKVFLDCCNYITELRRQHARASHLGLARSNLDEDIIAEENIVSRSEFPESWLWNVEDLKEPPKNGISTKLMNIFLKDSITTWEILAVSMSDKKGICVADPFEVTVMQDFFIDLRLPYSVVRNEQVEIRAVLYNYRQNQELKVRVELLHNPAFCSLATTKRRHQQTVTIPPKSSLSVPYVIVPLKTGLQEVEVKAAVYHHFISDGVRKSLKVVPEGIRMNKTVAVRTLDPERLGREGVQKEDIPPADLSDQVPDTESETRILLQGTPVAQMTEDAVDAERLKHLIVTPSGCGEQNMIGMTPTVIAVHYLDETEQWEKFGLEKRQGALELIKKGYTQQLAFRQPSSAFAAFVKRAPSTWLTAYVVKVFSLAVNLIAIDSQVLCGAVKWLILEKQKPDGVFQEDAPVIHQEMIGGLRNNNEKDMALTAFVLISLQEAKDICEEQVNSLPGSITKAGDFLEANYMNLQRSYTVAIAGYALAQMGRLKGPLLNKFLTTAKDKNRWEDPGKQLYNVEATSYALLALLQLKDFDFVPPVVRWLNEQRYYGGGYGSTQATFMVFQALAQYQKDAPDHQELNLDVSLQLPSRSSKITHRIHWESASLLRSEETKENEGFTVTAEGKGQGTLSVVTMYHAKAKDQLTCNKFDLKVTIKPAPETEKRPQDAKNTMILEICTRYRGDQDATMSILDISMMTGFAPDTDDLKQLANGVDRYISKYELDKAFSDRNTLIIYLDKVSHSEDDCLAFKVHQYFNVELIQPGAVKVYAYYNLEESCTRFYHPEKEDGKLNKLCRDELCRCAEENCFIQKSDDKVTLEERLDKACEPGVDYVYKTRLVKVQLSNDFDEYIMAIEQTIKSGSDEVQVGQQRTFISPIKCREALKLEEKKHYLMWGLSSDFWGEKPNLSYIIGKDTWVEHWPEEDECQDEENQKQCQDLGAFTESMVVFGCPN

| Binder | inhibition of hemolysis IC50 |
| --- | --- |
| Ac-EGSAYCI[Trp(1-Me)]QDWGEHRC[Sar]EGKK([γGlu-Gly-γGlu-C18 diacid])-NH2 (disulfide 6-16; SMILES CC[C@H](C)[C@@H]1NC(=O)[C@@H](NC(=O)[C@H](Cc2ccc(O)cc2)NC(=O)[C@H](C)NC(=O)[C@H](CO)NC(=O)CNC(=O)[C@H](CCC(=O)O)NC(C)=O)CSSC[C@@H](C(=O)N(C)CC(=O)N[C@@H](CCC(=O)O)C(=O)NCC(=O)N[C@@H](CCCCN)C(=O)N[C@@H](CCCCNC(=O)CC[C@H](NC(=O)CNC(=O)CC[C@H](NC(=O)CCCCCCCCCCCCCCCCC(=O)O)C(=O)O)C(=O)O)C(N)=O)NC(=O)[C@H](CCCNC(=N)N)NC(=O)[C@H](Cc2c[nH]cn2)NC(=O)[C@H](CCC(=O)O)NC(=O)CNC(=O)[C@H](Cc2c[nH]c3ccccc23)NC(=O)[C@H](CC(=O)O)NC(=O)[C@H](CCC(N)=O)NC(=O)[C@H](Cc2cn(C)c3ccccc23)NC1=O) [Compound 110] | < 250 nM |
| Ac-EGSAICIWQDWGEHRCTEGK([γGlu-C16 diacid])-NH2 (disulfide 6-16; SMILES CC[C@H](C)[C@H](NC(=O)[C@H](C)NC(=O)[C@H](CO)NC(=O)CNC(=O)[C@H](CCC(=O)O)NC(C)=O)C(=O)N[C@H]1CSSC[C@@H](C(=O)N[C@H](C(=O)N[C@@H](CCC(=O)O)C(=O)NCC(=O)N[C@@H](CCCCNC(=O)CC[C@H](NC(=O)CCCCCCCCCCCCCCC(=O)O)C(=O)O)C(N)=O)[C@@H](C)O)NC(=O)[C@H](CCCNC(=N)N)NC(=O)[C@H](Cc2c[nH]cn2)NC(=O)[C@H](CCC(=O)O)NC(=O)CNC(=O)[C@H](Cc2c[nH]c3ccccc23)NC(=O)[C@H](CC(=O)O)NC(=O)[C@H](CCC(N)=O)NC(=O)[C@H](Cc2c[nH]c3ccccc23)NC(=O)[C@H]([C@@H](C)CC)NC1=O) [Compound 101] | < 500 nM |
| Ac-EGSAYCI[Trp(1-Me)]QDWGEHK([AEEA-AEEA-γGlu-C16 diacid])C[Sar]E-NH2 (disulfide 6-16; SMILES CC[C@H](C)[C@@H]1NC(=O)[C@@H](NC(=O)[C@H](Cc2ccc(O)cc2)NC(=O)[C@H](C)NC(=O)[C@H](CO)NC(=O)CNC(=O)[C@H](CCC(=O)O)NC(C)=O)CSSC[C@@H](C(=O)N(C)CC(=O)N[C@@H](CCC(=O)O)C(N)=O)NC(=O)[C@H](CCCCNC(=O)COCCOCCNC(=O)COCCOCCNC(=O)CC[C@H](NC(=O)CCCCCCCCCCCCCCC(=O)O)C(=O)O)NC(=O)[C@H](Cc2c[nH]cn2)NC(=O)[C@H](CCC(=O)O)NC(=O)CNC(=O)[C@H](Cc2c[nH]c3ccccc23)NC(=O)[C@H](CC(=O)O)NC(=O)[C@H](CCC(N)=O)NC(=O)[C@H](Cc2cn(C)c3ccccc23)NC1=O) [Compound 103] | < 100 nM |
| Ac-ICIWQDWGEHRCTEGK([AEEA-AEEA-γGlu-C20 diacid])-NH2 (disulfide 2-12; SMILES CC[C@H](C)[C@H](NC(C)=O)C(=O)N[C@H]1CSSC[C@@H](C(=O)N[C@H](C(=O)N[C@@H](CCC(=O)O)C(=O)NCC(=O)N[C@@H](CCCCNC(=O)COCCOCCNC(=O)COCCOCCNC(=O)CC[C@H](NC(=O)CCCCCCCCCCCCCCCCCCC(=O)O)C(=O)O)C(N)=O)[C@@H](C)O)NC(=O)[C@H](CCCNC(=N)N)NC(=O)[C@H](Cc2c[nH]cn2)NC(=O)[C@H](CCC(=O)O)NC(=O)CNC(=O)[C@H](Cc2c[nH]c3ccccc23)NC(=O)[C@H](CC(=O)O)NC(=O)[C@H](CCC(N)=O)NC(=O)[C@H](Cc2c[nH]c3ccccc23)NC(=O)[C@H]([C@@H](C)CC)NC1=O) [Compound 98] | < 500 nM |
| Ac-K([AEEA-AEEA-γGlu-C16 diacid])GSAICIWQDWGEHRCTEGE-NH2 (disulfide 6-16; SMILES CC[C@H](C)[C@H](NC(=O)[C@H](C)NC(=O)[C@H](CO)NC(=O)CNC(=O)[C@H](CCCCNC(=O)COCCOCCNC(=O)COCCOCCNC(=O)CC[C@H](NC(=O)CCCCCCCCCCCCCCC(=O)O)C(=O)O)NC(C)=O)C(=O)N[C@H]1CSSC[C@@H](C(=O)N[C@H](C(=O)N[C@@H](CCC(=O)O)C(=O)NCC(=O)N[C@@H](CCC(=O)O)C(N)=O)[C@@H](C)O)NC(=O)[C@H](CCCNC(=N)N)NC(=O)[C@H](Cc2c[nH]cn2)NC(=O)[C@H](CCC(=O)O)NC(=O)CNC(=O)[C@H](Cc2c[nH]c3ccccc23)NC(=O)[C@H](CC(=O)O)NC(=O)[C@H](CCC(N)=O)NC(=O)[C@H](Cc2c[nH]c3ccccc23)NC(=O)[C@H]([C@@H](C)CC)NC1=O) [Compound 100] | < 500 nM |
| {C18 diacid}-EGSEYCI[Trp(1-Me)]QDWGEHRC[Sar]E-NH2 (disulfide 6-16; SMILES CC[C@H](C)[C@@H]1NC(=O)[C@@H](NC(=O)[C@H](Cc2ccc(O)cc2)NC(=O)[C@H](CCC(=O)O)NC(=O)[C@H](CO)NC(=O)CNC(=O)[C@H](CCC(=O)O)NC(=O)CCCCCCCCCCCCCCCCC(=O)O)CSSC[C@@H](C(=O)N(C)CC(=O)N[C@@H](CCC(=O)O)C(N)=O)NC(=O)[C@H](CCCNC(=N)N)NC(=O)[C@H](Cc2c[nH]cn2)NC(=O)[C@H](CCC(=O)O)NC(=O)CNC(=O)[C@H](Cc2c[nH]c3ccccc23)NC(=O)[C@H](CC(=O)O)NC(=O)[C@H](CCC(N)=O)NC(=O)[C@H](Cc2cn(C)c3ccccc23)NC1=O) [Compound 108] | < 500 nM |
| Ac-SAYCI[Trp(1-Me)]QDWGEHRC[Sar]EK([γGlu-Gly-Lys-γGlu-C18 diacid])-NH2 (disulfide 4-14) [Compound 105] | < 100 nM |
| Ac-EGSAYCI[Trp(1-Me)]QDWGEHRC[Sar]EGEK([γGlu-Gly-γGlu-C18 diacid])-NH2 (disulfide 6-16; SMILES CC[C@H](C)[C@@H]1NC(=O)[C@@H](NC(=O)[C@H](Cc2ccc(O)cc2)NC(=O)[C@H](C)NC(=O)[C@H](CO)NC(=O)CNC(=O)[C@H](CCC(=O)O)NC(C)=O)CSSC[C@@H](C(=O)N(C)CC(=O)N[C@@H](CCC(=O)O)C(=O)NCC(=O)N[C@@H](CCC(=O)O)C(=O)N[C@@H](CCCCNC(=O)CC[C@H](NC(=O)CNC(=O)CC[C@H](NC(=O)CCCCCCCCCCCCCCCCC(=O)O)C(=O)O)C(=O)O)C(N)=O)NC(=O)[C@H](CCCNC(=N)N)NC(=O)[C@H](Cc2c[nH]cn2)NC(=O)[C@H](CCC(=O)O)NC(=O)CNC(=O)[C@H](Cc2c[nH]c3ccccc23)NC(=O)[C@H](CC(=O)O)NC(=O)[C@H](CCC(N)=O)NC(=O)[C@H](Cc2cn(C)c3ccccc23)NC1=O) [Compound 109] | < 250 nM |
| {C16 diacid}-ESSAICIWQDWGEHRCTEGE-NH2 (disulfide 6-16) [Compound 99] | < 250 nM |
| Ac-ICIWQDWGKHRCT-NH2 (disulfide 2-12; SMILES CC[C@H](C)[C@H](NC(C)=O)C(=O)N[C@H]1CSSC[C@@H](C(=O)N[C@H](C(N)=O)[C@@H](C)O)NC(=O)[C@H](CCCNC(=N)N)NC(=O)[C@H](Cc2c[nH]cn2)NC(=O)[C@H](CCCCN)NC(=O)CNC(=O)[C@H](Cc2c[nH]c3ccccc23)NC(=O)[C@H](CC(=O)O)NC(=O)[C@H](CCC(N)=O)NC(=O)[C@H](Cc2c[nH]c3ccccc23)NC(=O)[C@H]([C@@H](C)CC)NC1=O) [Compound 5] | < 250 nM |
